The series deals with the molecule itself. Briefly: crystal structure.

B1: Atg11 residues 699-800 (Atg11_(699-800)) (domain or fragment, S. cerevisiae, UniProt Q12527 699-800, looked up)
chain: NNHQIQELESNVDDLLHQLQLLKEENNRKSMQISEMGKKISDLEVEKTAYRETLTNLNQELARLTNEEQSHRTEIFTLNASFKKQLNDIISQDNEKIEKLTG
As to B1, the “stoichiometry N” value is 2.

These data come from article PMC7603899 (Journal of molecular biology, 2020).
